B1: GST-Smurf1 (Smad ubiquitination regulatory factor-1) (enzyme, UniProt Q9HCE7-2 1-731, looked up)
chain: MSNPGTRRNGSSIKIRLTVLCAKNLAKKDFFRLPDPFAKIVVDGSGQCHSTDTVKNTLDPKWNQHYDLYVGKTDSITISVWNHKKIHKKQGAGFLGCVRLLSNAISRLKDTGYQRLDLCKLNPSDTDAVRGQIVVSLQTRDRIGTGGSVVDCRGLLENEGTVYEDSGPGRPLSCFMEEPAPYTDSTGAAAGGGNCRFVESPSQDQRLQAQRLRNPDVRGSLQTPQNRPHGHQSPELPEGYEQRTTVQGQVYFLHTQTGVSTWHDPRIPRDLNSVNCDELGPLPPGWEVRSTVSGRIYFVDHNNRTTQFTDPRLHHIMNHQCQLKEPSQPLPLPSEGSLEDEELPAQRYERDLVQKLKVLRHELSLQQPQAGHCRIEVSREEIFEESYRQIMKMRPKDLKKRLMVKFRGEEGLDYGGVAREWLYLLCHEMLNPYYGLFQYSTDNIYMLQINPDSSINPDHLSYFHFVGRIMGLAVFHGHYINGGFTVPFYKQLLGKPIQLSDLESVDPELHKSLVWILENDITPVLDHTFCVEHNAFGRILQHELKPNGRNVPVTEENKKEYVRLYVNWRFMRGIEAQFLALQKGFNELIPQHLLKPFDQKELELIIGGLDKIDLNDWKSNTRLKHCVADSNIVRWFWQAVETFDEERRARLLQFVTGSTRVPLQGFKALQGSTGAAGPRLFTIHLIDANTDNLPKAHTCFNRIDIPPYESYEKLYEKLLTAVEETCGFAVE
notes: Smurf1, HECT-type ubiquitin ligase; also called GST-tagged Smurf1; source: bacteria-expressed, immobilized on Glutathione-Sepharose 4B beads
B2: UbcH5c (enzyme)
chain: not shown
notes: UbcH5c, ubiquitin-conjugating enzyme (E2) of Smurf1; The methods say the assay is the same as GST-Smurf1 with His-Ub, so a His tag is likely; also called E2; source: prokaryotic expressed, purified

Key:
Assay in all cases: pull-down; GST fusion immobilized on Glutathione-Sepharose 4B beads, incubated with the partner for 8 h at 4°C; washed with GST-binding buffer (100 mM NaCl, 50 mM NaF, 2 mM EDTA, 1% NP-40); immunoblotting; also run with B06 and B75 where the paper says they had no effect
Conditions in all cases: both partners purified
UbcH7 = biological target: T1, UbcH7 (UniProt P68036 1-154)
T1 construct: UbcH7, ubiquitin-conjugating enzyme (E2) of Smurf1; The methods say the assay is the same as GST-Smurf1 with His-Ub, so a His tag is likely; also called E2; source: prokaryotic expressed, purified

His-Ub (ubiquitin) = biological target: T2, His-Ub (ubiquitin) (UniProt P0CG48 1-76)
T2 construct: ubiquitin, single (mono) ubiquitin; also called mono-Ub; single Ub protein

[1] = biological target: B1

T1 sequence (P68036 whole entry): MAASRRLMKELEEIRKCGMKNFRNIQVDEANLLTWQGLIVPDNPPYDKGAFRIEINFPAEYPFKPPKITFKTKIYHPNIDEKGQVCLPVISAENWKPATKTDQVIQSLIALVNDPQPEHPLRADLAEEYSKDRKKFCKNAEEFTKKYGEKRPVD

Row | binding result (UbcH7) | binding result (His-Ub (ubiquitin)) | binding result [1] | Binder
1 | binds | binds |  | B1
2 |  |  | binds | B2
